The target of this assay is Lon-His (C. crescentus) (UniProt B8GX12).
Chain of UniProt B8GX12 (B8GX12 whole entry): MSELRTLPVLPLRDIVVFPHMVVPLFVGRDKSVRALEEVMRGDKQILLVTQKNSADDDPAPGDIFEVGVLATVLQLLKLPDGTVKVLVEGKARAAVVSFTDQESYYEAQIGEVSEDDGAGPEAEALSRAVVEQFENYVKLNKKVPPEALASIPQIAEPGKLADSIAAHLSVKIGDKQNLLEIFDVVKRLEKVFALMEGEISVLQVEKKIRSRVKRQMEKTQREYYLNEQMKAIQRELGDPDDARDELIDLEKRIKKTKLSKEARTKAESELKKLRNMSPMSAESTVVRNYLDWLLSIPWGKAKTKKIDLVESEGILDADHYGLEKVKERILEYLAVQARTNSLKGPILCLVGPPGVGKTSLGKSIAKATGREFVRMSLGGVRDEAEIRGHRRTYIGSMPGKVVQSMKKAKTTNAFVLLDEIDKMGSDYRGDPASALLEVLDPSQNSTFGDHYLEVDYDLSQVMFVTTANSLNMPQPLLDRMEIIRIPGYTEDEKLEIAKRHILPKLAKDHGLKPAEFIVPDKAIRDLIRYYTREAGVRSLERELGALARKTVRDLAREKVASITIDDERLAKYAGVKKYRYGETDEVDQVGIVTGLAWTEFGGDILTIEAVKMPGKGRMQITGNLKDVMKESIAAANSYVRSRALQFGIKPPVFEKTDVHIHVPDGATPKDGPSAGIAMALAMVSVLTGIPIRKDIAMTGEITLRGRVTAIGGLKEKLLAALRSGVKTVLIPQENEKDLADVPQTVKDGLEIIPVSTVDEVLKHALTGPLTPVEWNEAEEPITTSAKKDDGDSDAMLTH

Turning to His-SciP (natural protein), the Km of His-SciP degradation by Lon-His (0.05 µM hexamer), without LarA was 9.3 µM.

These data come from doi:10.1101/2022.10.10.511565.
